Publication PMC2745277

Molecular target: T1, SurR (Pyrococcus furiosus, UniProt Q8U4J2 1-232)
T1 sequence: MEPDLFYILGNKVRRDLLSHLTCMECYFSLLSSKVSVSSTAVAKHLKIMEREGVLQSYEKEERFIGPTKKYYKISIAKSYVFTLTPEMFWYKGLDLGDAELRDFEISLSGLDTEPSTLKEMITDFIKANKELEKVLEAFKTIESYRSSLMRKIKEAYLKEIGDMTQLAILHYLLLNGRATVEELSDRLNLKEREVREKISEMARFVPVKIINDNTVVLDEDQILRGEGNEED
Assay: EMSA

B1: SELEX-derived 40-bp probe GTTcacAAC (dsDNA)
DNA 1: GCTTCATCCGTGACGTTCACAACCAAATAGATTGAGGATC
DNA 2: GATCCTCAATCTATTTGGTTGTGAACGTCACGGATGAAGC
B1: binds.
